# Results taken from patent US20260193323.
# Columns and labels:
# [1] = tested on: T1, recombinantly produced LEKTI Domain 6
# T1 sequence: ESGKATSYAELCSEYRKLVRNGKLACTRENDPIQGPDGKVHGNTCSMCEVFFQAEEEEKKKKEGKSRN
# [2] = tested on: T2, LEKTI Domain 6 (ct His6 tag)
# T2 sequence: T1 sequence
substance,measurement,setting,value
trypsin,"Trypsin activity (rate of change in the absorbance at 405 nm, L-BAPNA cleavage, per minute)",[1],LEKTI Domain 6 inhibited trypsin activity in vitro
same,"trypsin activity (L-BAPNA substrate, 405 nm)",[2],recombinantly produced LEKTI Domain 6 (ct His6 tag) inhibits trypsin in vitro compared to LEKTI domains 10-15
